# From paper doi:10.1101/2023.03.20.533423 (bioRxiv, 2023)
# T1: M. tb ParB with C-terminal 6xHis-tag (M. tuberculosis, UniProt P9WIJ9 1-344)
# T1 sequence: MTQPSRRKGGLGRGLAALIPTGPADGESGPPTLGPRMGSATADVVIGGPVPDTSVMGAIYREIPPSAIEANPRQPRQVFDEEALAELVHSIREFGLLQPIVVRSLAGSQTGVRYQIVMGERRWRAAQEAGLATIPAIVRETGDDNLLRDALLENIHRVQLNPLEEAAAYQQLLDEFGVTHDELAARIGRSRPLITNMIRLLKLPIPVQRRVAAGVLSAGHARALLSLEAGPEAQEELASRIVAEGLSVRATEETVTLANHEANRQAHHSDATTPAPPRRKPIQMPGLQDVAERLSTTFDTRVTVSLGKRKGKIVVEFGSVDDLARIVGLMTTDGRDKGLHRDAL
# Biological target: T1, M. tb ParB with C-terminal 6xHis-tag
# Assay: pull-down
binder,measurement,value
GST-Rv1708 (natural protein) MPAGLPGQASVAVRLSCDVPPDARHHEPRPGMTDHPDTGNGIGLTGRPPRAIPDPAPRSSHGPAKVIAMCNQKGGVGKTTSTINLGAALGEYGRRVLLVDMDPQGALSAGLGVPHYELDKTIHNVLVEPRVSIDDVLIHSRVKNMDLVPSNIDLSAAEIQLVNEVGREQTLARALYPVLDRYDYVLIDCQPSLGLLTVNGLACTDGVIIPTECEFFSLRGLALLTDTVDKVRDRLNPKLDISGILITRYDPRTVNSREVMARVVERFGDLVFDTVITRTVRFPETSVAGEPITTWAPKSAGALAYRALARELIDRFGM,binding result,binds
